Test results: patent publication US20210253711A1

B1: 3F9.E4 (antibody, V domains shown)
VH: EVQLQESGEGLVKPGGSLKLSCAASGFTFSNYAMSWVRQTPEKRLEWVAYISPGGDYIYYADTVKGRFTISRDNARNTLYLQMSSLKSEDTAMYYCTTDRRHYGSYAMDYWGQGISVTVSS
VL: DIVMTQAAPSVPVTPGESVSISCRSSKSLLHSNGNTYLYWFLQRPGQSPQLLIYRMSNLASGVPDRFSGSGSGTAFTLRISRVEAEDVGVYYCMQHLEYPFTFGSGTKLEIK
B2: 16F10.C12 (antibody, V domains shown)
VH: EVQLQESGPGLVAPSQSLSITCTVSGFSLTAFGVNWVRQPPGKGLEWLGMIWGDGNTDYNSTLRSRLSISKDNSKSQVFLKLNSLQTDDTARYFCARETYYGNYAGLGYWGQGTLVTVSA
VL: QIVLTQSPAIMSASIGERVTMTCTASSSVSSNYLHWYQQKPRSSPKLWIYTTSNLASGVPTRFSGSGSGTSYSLTISSMEAEDAATYYCHQFHRSPFTFGSGTKLEIK

Molecular target: MICA antigen of Table 2 (purified 6×His-MICA*08 or 6×His-MICA*04) (UniProt Q29983)
Test: BLI (Octet Red96), mAb captured on anti-mouse IgG Fc biosensors, His-tagged MICA in solution, 1:1 model

Row | Binder | Kd [nM] | koff [s⁻¹] | kon [M⁻¹ s⁻¹]
1 | B1 | 1.18 | 0.000421 | 383000
2 | B2 | 6.45 | 0.000548 | 93300
